Data published in article PMC6363177, “R pyocin tail fiber structure reveals a receptor-binding domain with a lectin fold” (PLoS ONE, 2019).

How the values were obtained:
[1] = target: the molecule itself; experiment: SEC; analytical Sepharose-200 10/300 column, elution volumes compared with SEC standards (Biorad); samples diluted to 1 mg/mL in 50mM Tris pH 8.0, 150mM NaCl, 5% glycerol
[2] = target: the molecule itself; experiment: crystal structure; vapor diffusion crystals at 16°C; trimer formed by crystallographic symmetry, also checked with PISA

B1: R2-subtype N-terminally truncated tail fiber fragment (R2-NTF) (domain or fragment)
chain: YVRVSYAANPSIREWLPWQRCDIGGSFTKEADGELPGGVNLDSMVTSGWWSQSFTAQAASGANYPIVRAGLLHVYAASSNFIYQTYQAYDGESFYFRCRHSNTWFPWRRMWHGGDFNPSDYLLKSGFYWNALPGKPATFPPSAHNHDVGQLTSGILPLARGGVGSNTAAGARSTIGAGVPATASLGASGWWRDNDTGLIRQWGQVTCPADADASITFPIPFPTLCLGGYANQTSAFHPGTDASTGFRGATTTTAVIRNGYFAQAVLSWEAFGR
notes: R2-subtype pyocin tail fiber PA0620 of Pseudomonas aeruginosa PAO1, residues Y419-R691; numbering relative to native PA0620; Cloned into pMCSG11 (LIC); 32.2 kDa printed; Removal of the tag before crystallisation is not mentioned; also called R2-subtype pyocin tail fiber distal region; PA0620 Y419-R691; source: E. coli BL21 (DE3), co-expressed with chaperone PA0621; in lysate for the Ni-IMAC …
stoichiometry N [1]: 3

B2: Selenomethionine-labelled R2-NTF (domain or fragment)
chain: B1 chain
modifications: selenomethionine in place of methionine
notes: R2-subtype pyocin tail fiber PA0620 of Pseudomonas aeruginosa PAO1, residues Y419-R691 (plasmid pMCSG11/R2-NTF, as m1); numbering relative to native PA0620; Same construct as m1, made in another host and labelled with selenomethionine for Se-SAD phasing; also called Sel-met R2-NTF; selenomethionine replaced R2-NTF; source: E. coli B834 (DE3) methionine auxotroph, co-expressed with PA0621 in M9 …
stoichiometry N [2]: 3
